Starred links: 1 amine or outer side, 2 acyl side, 3 side chain; linkers in the order of their positions; H or OH if unused. Non-standard residues stand in square brackets, D forms with d. Groups on a side chain read outwards from the residue. Primed or numbered codes have the meaning given here. No end group written: not given here. *: point of attachment. γGlu = O=C(O)[C@H](CCC(=O)[*:2])N[*:1]; Stearoyl = CCCCCCCCCCCCCCCCCC(=O)*; αMeF = C[C@](N)(Cc1ccccc1)C(=O)O; αMeK = C[C@](N)(CCCCN)C(=O)O; Lauroyl = CCCCCCCCCCCC(=O)*; αMeS = C[C@](N)(CO)C(=O)O; PEG2′ = not defined here; Aib = CC(C)(N)C(=O)O; Ahx = NCCCCCC(=O)O
T1: glucose-dependent insulinotropic peptide (gastric inhibitory polypeptide) receptor (GIPR) (human, UniProt P48546 22-466)
T1 sequence (looked up): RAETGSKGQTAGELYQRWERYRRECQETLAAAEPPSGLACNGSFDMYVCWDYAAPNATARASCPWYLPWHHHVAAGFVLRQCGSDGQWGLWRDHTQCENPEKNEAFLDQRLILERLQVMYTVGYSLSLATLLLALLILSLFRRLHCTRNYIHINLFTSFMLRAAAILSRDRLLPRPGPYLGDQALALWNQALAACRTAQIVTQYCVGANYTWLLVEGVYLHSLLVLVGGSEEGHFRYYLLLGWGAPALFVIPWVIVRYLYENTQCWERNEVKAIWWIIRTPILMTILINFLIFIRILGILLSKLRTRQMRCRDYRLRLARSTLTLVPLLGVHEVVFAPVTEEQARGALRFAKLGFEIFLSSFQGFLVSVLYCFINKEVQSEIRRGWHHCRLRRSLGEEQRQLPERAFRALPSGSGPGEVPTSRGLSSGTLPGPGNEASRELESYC


Assays:
Assay in all cases: cell-based or functional assay
[1] = biological target: glucagon receptor (GCGR) (human, UniProt P47871 26-477)
[2] = biological target: GLP-1 receptor (GLP-1R) (human, UniProt P43220 24-463)
[3] = biological target: T1, glucose-dependent insulinotropic …

glucagon receptor (GCGR), sequence (P47871 26-477): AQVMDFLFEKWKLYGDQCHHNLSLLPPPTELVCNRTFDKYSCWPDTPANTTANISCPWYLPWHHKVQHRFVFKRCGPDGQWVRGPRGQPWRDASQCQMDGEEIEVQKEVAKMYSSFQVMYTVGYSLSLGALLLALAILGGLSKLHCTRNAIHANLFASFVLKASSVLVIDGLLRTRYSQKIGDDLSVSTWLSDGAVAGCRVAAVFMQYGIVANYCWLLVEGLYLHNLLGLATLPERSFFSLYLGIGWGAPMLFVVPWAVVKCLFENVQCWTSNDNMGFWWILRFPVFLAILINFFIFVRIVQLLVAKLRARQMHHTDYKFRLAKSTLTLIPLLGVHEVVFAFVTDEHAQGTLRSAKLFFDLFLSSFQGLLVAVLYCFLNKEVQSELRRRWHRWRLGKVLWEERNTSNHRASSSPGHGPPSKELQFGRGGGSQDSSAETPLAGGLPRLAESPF

Primary assay EC50 (cAMP), Gluc-R, first run [1] [nM]	Primary assay EC50 (cAMP), Gluc-R, second run [1] [nM]	Primary assay EC50 (cAMP), GLP-1R n1 [2] [nM]	Primary assay EC50 (cAMP), GLP-1R n2 [2] [nM]	Primary assay EC50 (cAMP), Mean pM GLP-1R [2] [pM]	Primary assay EC50 (cAMP), GIP-R, first run [3] [nM]	Primary assay EC50 (cAMP), GIP-R, second run [3] [nM]	Binder
26	26	0.39	0.32	350	26	26	H[Aib]EGS[αMeF]TSDV[αMeS]S[αMeF]LEGEAAK([Ahx-Ahx-Ahx-Stearoyl])E[αMeF]IA[αMeF]VV[αMeK]GG-NH2 (N-terminus assumed; SMILES CCCCCCCCCCCCCCCCCC(=O)NCCCCCC(=O)NCCCCCC(=O)NCCCCCC(=O)NCCCC[C@H](NC(=O)[C@H](C)NC(=O)[C@H](C)NC(=O)[C@H](CCC(=O)O)NC(=O)CNC(=O)[C@H](CCC(=O)O)NC(=O)[C@H](CC(C)C)NC(=O)[C@](C)(Cc1ccccc1)NC(=O)[C@H](CO)NC(=O)[C@](C)(CO)NC(=O)[C@@H](NC(=O)[C@H](CC(=O)O)NC(=O)[C@H](CO)NC(=O)[C@@H](NC(=O)[C@](C)(Cc1ccccc1)NC(=O)[C@H](CO)NC(=O)CNC(=O)[C@H](CCC(=O)O)NC(=O)C(C)(C)NC(=O)[C@@H](N)Cc1c[nH]cn1)[C@@H](C)O)C(C)C)C(=O)N[C@@H](CCC(=O)O)C(=O)N[C@@](C)(Cc1ccccc1)C(=O)N[C@H](C(=O)N[C@@H](C)C(=O)N[C@@](C)(Cc1ccccc1)C(=O)N[C@H](C(=O)N[C@H](C(=O)N[C@@](C)(CCCCN)C(=O)NCC(=O)NCC(N)=O)C(C)C)C(C)C)[C@@H](C)CC) [SEQ ID NO 160]
27	27	0.16	0.062	112	27	27	H[Aib]EGS[αMeF]TSDV[αMeS]S[αMeF]LEGEAAK([PEG2′-Stearoyl])E[αMeF]IA[αMeF]VV[αMeK]GG-NH2 [SEQ ID NO 161]
26	26	0.053	0.055	54	26	26	H[Aib]EGS[αMeF]TSDV[αMeS]S[αMeF]LEGEAAK([PEG2′-PEG2′-Stearoyl])E[αMeF]IA[αMeF]VV[αMeK]GG-NH2 [SEQ ID NO 162]
25	25	0.063	0.049	56	25	25	H[Aib]EGS[αMeF]TSDV[αMeS]S[αMeF]LEGEAAK([PEG2′-PEG2′-PEG2′-Stearoyl])E[αMeF]IA[αMeF]VV[αMeK]GG-NH2 [SEQ ID NO 163]
28	28	0.022	0.0078	14.6	28	28	H[Aib]EGS[αMeF]TSDV[αMeS]S[αMeF]LEGEAA[αMeK]E[αMeF]IA[αMeF]VVK([γGlu-Lauroyl])GG-NH2 (N-terminus assumed; SMILES CCCCCCCCCCCC(=O)N[C@@H](CCC(=O)NCCCC[C@H](NC(=O)[C@@H](NC(=O)[C@@H](NC(=O)[C@](C)(Cc1ccccc1)NC(=O)[C@H](C)NC(=O)[C@@H](NC(=O)[C@](C)(Cc1ccccc1)NC(=O)[C@H](CCC(=O)O)NC(=O)[C@](C)(CCCCN)NC(=O)[C@H](C)NC(=O)[C@H](C)NC(=O)[C@H](CCC(=O)O)NC(=O)CNC(=O)[C@H](CCC(=O)O)NC(=O)[C@H](CC(C)C)NC(=O)[C@](C)(Cc1ccccc1)NC(=O)[C@H](CO)NC(=O)[C@](C)(CO)NC(=O)[C@@H](NC(=O)[C@H](CC(=O)O)NC(=O)[C@H](CO)NC(=O)[C@@H](NC(=O)[C@](C)(Cc1ccccc1)NC(=O)[C@H](CO)NC(=O)CNC(=O)[C@H](CCC(=O)O)NC(=O)C(C)(C)NC(=O)[C@@H](N)Cc1c[nH]cn1)[C@@H](C)O)C(C)C)[C@@H](C)CC)C(C)C)C(C)C)C(=O)NCC(=O)NCC(N)=O)C(=O)O) [SEQ ID NO 164]
27	27	0.014	0.006	10.2	27	27	H[Aib]EGS[αMeF]TSDV[αMeS]S[αMeF]LEGEAA[αMeK]E[αMeF]IA[αMeF]VVK([γGlu-γGlu-Lauroyl])GG-NH2 (N-terminus assumed; SMILES CCCCCCCCCCCC(=O)N[C@@H](CCC(=O)N[C@@H](CCC(=O)NCCCC[C@H](NC(=O)[C@@H](NC(=O)[C@@H](NC(=O)[C@](C)(Cc1ccccc1)NC(=O)[C@H](C)NC(=O)[C@@H](NC(=O)[C@](C)(Cc1ccccc1)NC(=O)[C@H](CCC(=O)O)NC(=O)[C@](C)(CCCCN)NC(=O)[C@H](C)NC(=O)[C@H](C)NC(=O)[C@H](CCC(=O)O)NC(=O)CNC(=O)[C@H](CCC(=O)O)NC(=O)[C@H](CC(C)C)NC(=O)[C@](C)(Cc1ccccc1)NC(=O)[C@H](CO)NC(=O)[C@](C)(CO)NC(=O)[C@@H](NC(=O)[C@H](CC(=O)O)NC(=O)[C@H](CO)NC(=O)[C@@H](NC(=O)[C@](C)(Cc1ccccc1)NC(=O)[C@H](CO)NC(=O)CNC(=O)[C@H](CCC(=O)O)NC(=O)C(C)(C)NC(=O)[C@@H](N)Cc1c[nH]cn1)[C@@H](C)O)C(C)C)[C@@H](C)CC)C(C)C)C(C)C)C(=O)NCC(=O)NCC(N)=O)C(=O)O)C(=O)O) [SEQ ID NO 165]
26	26	0.0072	0.0027	4.9	26	26	H[Aib]EGS[αMeF]TSDV[αMeS]S[αMeF]LEGEAA[αMeK]E[αMeF]IA[αMeF]VVK([γGlu-γGlu-γGlu-Lauroyl])GG-NH2 (N-terminus assumed; SMILES CCCCCCCCCCCC(=O)N[C@@H](CCC(=O)N[C@@H](CCC(=O)N[C@@H](CCC(=O)NCCCC[C@H](NC(=O)[C@@H](NC(=O)[C@@H](NC(=O)[C@](C)(Cc1ccccc1)NC(=O)[C@H](C)NC(=O)[C@@H](NC(=O)[C@](C)(Cc1ccccc1)NC(=O)[C@H](CCC(=O)O)NC(=O)[C@](C)(CCCCN)NC(=O)[C@H](C)NC(=O)[C@H](C)NC(=O)[C@H](CCC(=O)O)NC(=O)CNC(=O)[C@H](CCC(=O)O)NC(=O)[C@H](CC(C)C)NC(=O)[C@](C)(Cc1ccccc1)NC(=O)[C@H](CO)NC(=O)[C@](C)(CO)NC(=O)[C@@H](NC(=O)[C@H](CC(=O)O)NC(=O)[C@H](CO)NC(=O)[C@@H](NC(=O)[C@](C)(Cc1ccccc1)NC(=O)[C@H](CO)NC(=O)CNC(=O)[C@H](CCC(=O)O)NC(=O)C(C)(C)NC(=O)[C@@H](N)Cc1c[nH]cn1)[C@@H](C)O)C(C)C)[C@@H](C)CC)C(C)C)C(C)C)C(=O)NCC(=O)NCC(N)=O)C(=O)O)C(=O)O)C(=O)O) [SEQ ID NO 166]
29	29	0.013	0.0069	10	29	29	H[Aib]EGS[αMeF]TSDV[αMeS]S[αMeF]LEGEAA[αMeK]E[αMeF]IA[αMeF]VVK([Ahx-Lauroyl])GG-NH2 (N-terminus assumed; SMILES CCCCCCCCCCCC(=O)NCCCCCC(=O)NCCCC[C@H](NC(=O)[C@@H](NC(=O)[C@@H](NC(=O)[C@](C)(Cc1ccccc1)NC(=O)[C@H](C)NC(=O)[C@@H](NC(=O)[C@](C)(Cc1ccccc1)NC(=O)[C@H](CCC(=O)O)NC(=O)[C@](C)(CCCCN)NC(=O)[C@H](C)NC(=O)[C@H](C)NC(=O)[C@H](CCC(=O)O)NC(=O)CNC(=O)[C@H](CCC(=O)O)NC(=O)[C@H](CC(C)C)NC(=O)[C@](C)(Cc1ccccc1)NC(=O)[C@H](CO)NC(=O)[C@](C)(CO)NC(=O)[C@@H](NC(=O)[C@H](CC(=O)O)NC(=O)[C@H](CO)NC(=O)[C@@H](NC(=O)[C@](C)(Cc1ccccc1)NC(=O)[C@H](CO)NC(=O)CNC(=O)[C@H](CCC(=O)O)NC(=O)C(C)(C)NC(=O)[C@@H](N)Cc1c[nH]cn1)[C@@H](C)O)C(C)C)[C@@H](C)CC)C(C)C)C(C)C)C(=O)NCC(=O)NCC(N)=O) [SEQ ID NO 167]
